{"source": "patent US20180224449A1", "about": "(GOVERNMENT OF THE UNITED STATES AS REPRESENTED BY THE …, published 2018)", "key": {"[1]": {"molecular_target": "T1, OprF outer membrane protein on A. venetianus cells (A. venetianus)", "T1 construct": "whole, on cells; Whole bacterial cells were labeled", "assay": "fluorometry of cells recovered from spiked 1 L Jet A fuel and labeled with 1.5 uM peptide-QD545, at the LOD of 5 x 10^5 CFU"}, "[2]": {"molecular_target": "T2, OprF outer membrane protein on P. stutzeri cells (P. stutzeri)", "T2 construct": "whole, on cells; whole bacterial cells were labeled", "assay": "fluorometry of cells recovered from spiked 1 L Jet A fuel and labeled with 1.5 uM peptide-QD545, at the LOD of 5 x 10^5 CFU"}, "[3]": {"molecular_target": "T3, biotinylated OprF1 synthetic peptide (P. aeruginosa)", "T3 construct": "also called OprF1-B; OprF1-Biotin", "T3 peptide": "Biotin-GTYETGNKKVH", "assay": "pooled monoclonal phages pulled down on biotinylated OprF1 in Bushnell-Haas with 1% Jet-A; unamplified eluate, share of 30 sequenced clones"}}, "note": "Ends that are not written are not given here. * marks the point of attachment. Biotin = O=C1N[C@H]2[C@H](CS[C@H]2CCCCC(=O)*)N1", "data": [{"binder": "PIKTNRK (also: conjugated to quantum dot, The summary and claims describe a C-terminal three-glycine plus cysteine linker to an amine-functionalized quantum dot; also called QD545-OBP11; OBP11-QD545)", "note": "[OBP11 peptide-quantum dot conjugate]", "values": [{"measurement": "FLUORESCENCE (RFU)", "setting": "[1]", "result": 292, "unit": "RFU"}, {"measurement": "FLUORESCENCE (RFU)", "setting": "[2]", "result": 255, "unit": "RFU"}]}, {"binder": "PKRTPRH (also: conjugated to quantum dot, The summary and claims describe a C-terminal three-glycine plus cysteine linker to an amine-functionalized quantum dot; also called QD545-OBP12; OBP12-QD545)", "note": "[OBP12 peptide-quantum dot conjugate]", "values": [{"measurement": "FLUORESCENCE (RFU)", "setting": "[1]", "result": 580, "unit": "RFU"}, {"measurement": "FLUORESCENCE (RFU)", "setting": "[2]", "result": 12200, "unit": "RFU"}]}, {"binder": "QITLRST (also called OprF-specific bacteriophage; not shown: P3 coat protein of M13 bacteriophage (Ph.D.-7 library))", "note": "[monoclonal M13 phage displaying OBP7 (QITLRST)]", "values": [{"measurement": "% Abundance", "setting": "[3]", "result": 10, "unit": "%"}]}, {"binder": "PKRTPRH (also called OprF-specific bacteriophage; not shown: P3 coat protein of M13 bacteriophage (Ph.D.-7 library))", "note": "[monoclonal M13 phage displaying OBP12 (PKRTPRH)]", "values": [{"measurement": "% Abundance", "setting": "[3]", "result": 3, "unit": "%"}]}, {"binder": "RRSNSQL (also called OprF-specific bacteriophage; not shown: P3 coat protein of M13 bacteriophage (Ph.D.-7 library))", "note": "[monoclonal M13 phage displaying OBP4 (RRSNSQL)]", "values": [{"measurement": "% Abundance", "setting": "[3]", "result": 33, "unit": "%"}]}, {"binder": "QMLLRLP (also called OprF-specific bacteriophage; not shown: P3 coat protein of M13 bacteriophage (Ph.D.-7 library))", "note": "[monoclonal M13 phage displaying OBP9 (QMLLRLP)]", "values": [{"measurement": "% Abundance", "setting": "[3]", "result": 3, "unit": "%"}]}, {"binder": "PIKTNRK (also called OprF-specific bacteriophage; not shown: P3 coat protein of M13 bacteriophage (Ph.D.-7 library))", "note": "[monoclonal M13 phage displaying OBP11 (PIKTNRK)]", "values": [{"measurement": "% Abundance", "setting": "[3]", "result": 10, "unit": "%"}]}, {"binder": "NMTNPPP (also called OprF-specific bacteriophage; not shown: P3 coat protein of M13 bacteriophage (Ph.D.-7 library))", "note": "[monoclonal M13 phage displaying OBP6 (NMTNPPP)]", "values": [{"measurement": "% Abundance", "setting": "[3]", "result": 10, "unit": "%"}]}]}
